In PMC4895914 (2014):
Square brackets hold non-standard residues; d marks the D form. Ends that are not written are not given here. * marks the point of attachment. His(π-(CH2)8Ph,τ-CH2CH2CH(OH)CH2OH) = His N(pi)-(CH2)8Ph and N(tau)-CH2CH2CH(OH)CH2OH; FITC = O=C1OC2(c3ccc(O)cc3Oc3cc(O)ccc32)c2ccc(NC(=S)*)cc21; His(π-(CH2)8Ph) = N[C@@H](Cc1cncn1CCCCCCCCc1ccccc1)C(=O)O; pT = C[C@@H](OP(=O)(O)O)[C@H](N)C(=O)O; PEG = not defined here

B1: Plk3 PBD PBD (protein)
chain: TPPNPARSLFAKVTKSLFGRKKKSKNHAQERDEVSGLVSGLMRTSVGHQDARPEAPAASGPAPVSLVETAPEDSSPRGTLASSGDGFEEGLTVATVVESALCALRNCIAFMPPAEQNPAPLAQPEPLVWVSKWVDYSNKFGFGYQLSSRRVAVLFNDGTHMALSANRKTVHYNPTSTKHFSFSVGAVPRALQPQLGILRYFASYMEQHLMKGGDLPSVEEVEVPAPPLLLQWVKTDQALLMLFSDGTVQVNFYGDHTKLILSGWEPLLVTFVARNRSACTYLASHLRQLGCSPDLRQRLRYALRLLRDRSPA
B2: Plk2 PBD PBD (protein)
chain: HLSSPAKNFFKKAAAALFGGKKDKARYIDTHNRVSKEDEDIYKLRHDLKKTSITQQPSKHRTDEELQPPTTTVARSGTPAVENKQQIGDAIRMIVRGTLGSCSSSSECLEDSTMGSVADTVARVLRGCLENMPEADCIPKEQLSTSFQWVTKWVDYSNKYGFGYQLSDHTVGVLFNNGAHMSLLPDKKTVHYYAELGQCSVFPATDAPEQFISQVTVLKYFSHYMEENLMDGGDLPSVTDIRRPRLYLLQWLKSDKALMMLFNDGTFQVNFYHDHTKIIICSQNEEYLLTYINEDRISTTFRLTTLLMSGCSSELKNRMEYALNMLLQRCN

How the values were obtained:
Test in all cases: fluorescence polarization
[1] = molecular target: T1, 3m* (not fully specified; reading uncertain)
T1 chain: {FITC-PEG}-PL[His(π-(CH2)8Ph,τ-CH2CH2CH(OH)CH2OH)]S[pT]

[2] = molecular target: T2, 2a* (not fully specified; reading uncertain)
T2 chain: {FITC-PEG}-PL[His(π-(CH2)8Ph)]S[pT]

[3] = molecular target: T3, 3c* (not fully specified (residue 3); reading uncertain; also: His N(tau)-hydroxyalkyl, not given here)
T3 chain: {FITC-PEG}-PLHS[pT]

| Binder | Kd [1] [nM] | Kd [2] [nM] | Kd [3] [nM] |
| --- | --- | --- | --- |
| B1 | 62 | 306 | 240 |
| B2 | 24 | 400 | 43 |
